Patent US8357523B2, “Beta-glucosidase variant enzymes and related polynucleotides” (Codexis, Inc., priority 2009, dated 2013)

Test: High throughput cellobiose assay: fold improvement in cellobiase activity of CelA variants over a control enzyme (Tables 2A-2D, 3, 5, 6, 7)
Format: biochemical
Details: 3.3 g/l cellobiose, 55° C. and pH 6.0

Molecule | Fold improvement over Control Variant No. 5 from Table 2A
109 (protein) STAIAQEGAAPAAILHPEKWPRPATQRLIDPAVEKRVDALLKQLSVEEKVGQVIQGDIGTITPEDLRKYPLGSILAGGNSGPNGDDRAPPKEWLDLADAFYRVSLEKRPGHTPIPVLFGIDAVHGHGNIGSATIFPHNIALGATRDPELLRRIGEVTAVEMAATGIDWTFAPALSVVRDDRWGRTYEGFSEDPEIVAAYSAAIVEGVQGKFGSKDFMAPGRIVASAKHFLADGGTDQGRDQGDARISEDELIRIHNAGYPPAIDAGVLTVMASFSSWQGIKHHGHKQLLTDVLKGQMGFNGFIVGDWNAHDQVPGCTKFNCPTSLIAGLDMYMAADSWKQLYENTLAQVKDGTIPMARLDDAVRRILRVKVLAGLFEKPAPKDRPGLPGLETLGSPEHRAVGREAVRKSLVLLKNDKGTLPLSPKARVLVAGDGADNIGKQSGGWTISWQGTGNRNDEFPGATSILGGIRDAVADAGGSVEFDVAGQYKTKPDVAIVVFGEEPYAEFQGDVETLEYQPDQKQDLALLKKLKDQGIPVVAVFLSGRPMWVNPELNASDAFVAAWLPGTEGGGVADVLFTDKAGKVQHDFAGKLSYSWPRTAAQTTVNRGDADYNPLFAYGYGLTYKDKSKVGTLPEESGVPAEARQNAGIYFRAGALRLPGRF | ++ (++ = 1.1 to 6 fold improvement over control Variant No. 2)
112 (protein) STAIAQEGAAPAAILHPEKWPRPATQRLIDPAVEKRVDALLKQLSVEEKVGQVIQGDIGTITPEDLRKYPLGSILAGGDSGPNGDDRAPPKEWLDLADAFYRVSLEKRPGHTPIPVLFGIDAVHGHGKIGSATIFPHNIALGMTRDPELLRRIGEVTAEEMAATGIDWTFAPCLSVVRDDRWGRTYEGFSEDPEIVAAYSAAIVEGVQGKFGSKDFMAPGRIVASAKHFLADGGTDQGRDQGDARISEDELIRIHNAGYPPAIDAGVLTVMASFSSWQGIKHHGHKQLLTDVLKGQMGFNGFIVGDWNAHDQVPGCTKFNCPTSLIAGLDMYMAADSWKQLYENTLAQVKDGTIPMARLDDAVRRILRVKVLAGLFEKPAPKDRPGLPGLETLGSPEHRAVGREAVRKSLVLLKNDKGTLPLSPKARVLVAGDGADNIGKQSGGWTISWQGTGNRNDEFPGATSILGGIRDAVADAGGSVEFDVAGQYKTKPDVAIVVFGEEPYAEFQGDVETLEYQPDQKQDLALLKKLKDQGIPVVAVFLSGRPMWVNPELNASDAFVAAWLPGTEGGGVADVLFTDKAGKVQHDFAGKLSYSWPRTAAQTTVNRGDADYNPLFAYGYGLTYKDKSKVGTLPEESGVPAEARQNAGIYFRAGALRLPGRFL | +++ (+++ = 6 to 13 fold improvement over control Variant No. 2)
113 (protein) STAIAQEGAAPAAILHPEKWPRPATQRLIDPAVEKRVDALLKQLSVEEKVGQVIQGDIGTITPEDLRKYPLGSILAGGNSGPNGDDRAPPKEWLDLADAFYRVSLEKRPGHTPIPVLFGIDAVHGHGKIGSATIFPHNIALGMTRDPELLRRIGEVTAQEMAATGIDWTFAPALSVVRDDRWGRTYEGFSEDPEIVAAYSPAIVEGVQGKYGSKDFMAPGRIVACAKHFLADGGTDQGRDQGDARISEDELIRIHNAGYPPAIDAGVLTVMASFSSWQGIKHHGHKQLLTDVLKGQMGFNGFIVGDWNAHDQVPGCTKFNCPTSLIAGLDMYMAADSWKQLYENTLAQVKDGTIPMARLDDAVRRILRVKVLAGLFEKPAPKDRPGLPGLETLGSPEHRAVGREAVRKSLVLLKNDKGTLPLSPKARVLVAGDGADNIGKQSGGWTISWQGTGNRNDEFPGATSILGGIRDAVADAGGSVEFDVAGQYKTKPDVAIVVFGEEPYAEFQGDVETLEYQPDQKQDLALLKKLKDQGIPVVAVFLSGRPMWVNPELNASDAFVAAWLPGTEGGGVADVLFTDKAGKVQHDFAGKLSYSWPRTAAQTTVNRGDADYNPLFAYGYGLTYKDKSKVGTLPEESGVPAEARQNAGIYFRAGALRLPGRFL | +++ (+++ = 6 to 13 fold improvement over control Variant No. 2)
116 (protein) STAIAQEGAAPAAILHPEKWPRPATQRLIDPAVEKRVDALLKQLSVEEKVGQVIQGDIGTITPEDLRKYPLGSILAGGDSGPNGDDRAPPKEWLDLADAFYRVSLEKRPGHTPIPVLFGIDAVHGHGKIGSATIFPHNIALGATRDPELLRRIGEVTAVEMTATGIDWTFAPALSVVRDDRWGRTYEGFSEDPEIVAAYSAAIVEGVQGKYGSKDFMAPGRIVACAKHFLADGGTDQGRDQGDARISEDELIRIHNAGYPPAIDAGVLTVMASFSSWQGIKHHGHKQLLTDVLKGQMGFNGFIVGDWNAHDQVPGCTKFNCPTSLIAGLDMYMAADSWKQLYENTLAQVKDGTIPMARLDDAVRRILRVKVLAGLFEKPAPKDRPGLPGLETLGSPEHRAVGREAVRKSLVLLKNDKGTLPLSPKARVLVAGDGADNIGKQSGGWTISWQGTGNRNDEFPGATSILGGIRDAVADAGGSVEFDVAGQYKTKPDVAIVVFGEEPYAEFQGDVETLEYQPDQKQDLALLKKLKDQGIPVVAVFLSGRPMWVNPELNASDAFVAAWLPGTEGGGVADVLFTDKAGKVQHDFAGKLSYSWPRTAAQTTVNRGDADYNPLFAYGYGLTYQDKSKVGTLPEESGVPAEARQNAGIYFRAGALRLPGRFL | +++ (+++ = 6 to 13 fold improvement over control Variant No. 2)
115 (protein) STAIAQEGAAPAAILHPEKWPRPATQRLIDPAVEKRVDALLKQLSVEEKVGQVIQGDIGTITPEDLRKYPLGSILAGGDSGPNGDDRAPPKEWLDLADAFYRVSLEKRPGHTPIPVLFGIDAVHGHGKIGSATIFPHNIALGATRDPELLRRIGEVTAVEMATTGIDWTFAPCLSVVRDDRWGRTYEGFSEDPEIVAAYSPAIVEGVQGKYGSKDFMAPGRIVACAKHFLADGGTDQGRDQGDARISEDELIRIHNAGYPPAIDAGVLTVMASFSSWQGIKHHGHKQLLTDVLKGQMGFNGFIVGDWNAHDQVPGCTKFNCPTSLIAGLDMYMAADSWKQLYENTLAQVKDGTIPMARLDDAVRRILRVKVLAGLFEKPAPKDRPGLPGLETLGSPEHRAVGREAVRKSLVLLKNDKGTLPLSPKARVLVAGDGADNIGKQSGGWTISWQGTGNRNDEFPGATSILGGIRDAVADAGGSVEFDVAGRYKTKPDVAIVVFGEEPYAEFQGDVETLEYQPDQKQDLALLKKLKDQGIPVVAVFLSGRPMWVNPELNASDAFVAPWLPGTEGGGVADVLFTDKAGKVQHDFAGKLSYSWPRTAAQTTVNRGDADYNPLFAYGYGLTYKDKSKVGTLPEESGVPAEARQNAGIYFRAGALRLPGRFL | ++ (++ = 1.1 to 6 fold improvement over control Variant No. 2)
114 (protein) STAIAQEGAAPAAILHPEKWPRPATQRLIDPAVEKRVDALLKQLSVEEKVGQVIQGDIGTITPEDLRKYPLGSILAGGDSGPNGDDRAPPKEWLDLTDAFYRVSLEKRPGHTPIPVLFGIDAVHGHGKIGSATIFPHNIALGMTRDPELLRRIGEVTAEEMAATGIDWTFAPCLSVVRDDRWGRTYEGFSEDPEIVAAYSAAIVEGVQGKYGSKDFMAPGRIVASAKHFLADGGTDQGRDQGDARISEDELIRIHNAGYPPAIDAGVLTVMASFSSWQGIKHHGHKQLLTDVLKGQMGFNGFIVGDWNAHDQVPGCTKFNCPTSLIAGLDMYMAADSWKQLYENTLAQVKDGTIPMARLDDAVRRILRVKVLAGLFEKPAPKDRPGLPGLETLGSPEHRAVGREAVRKSLVLLKNDKGTLPLSPKARVLVAGDGADNIGKQSGGWTISWQGTGNRNDEFPGATSILGGIRDAVADAGGSVEFDVAGQYKTKPDVAIVVFGEEPYAEFRGDVETLEYQPDQKQDLALLKKLKDQGIPVVAVFLSGRPMWVNPELNASDAFVAAWLPGTEGGGVADVLFTDKAGKVQHDFAGKLSYSWPRTAAQTTVNRGDADYNPLFAYGYGLTYKDKSKVGTLPEESGVPAEARQNAGIYFRAGALRLPGRFL | +++ (+++ = 6 to 13 fold improvement over control Variant No. 2)
111 (protein) STAIAQEGAAPAAILHPEKWPRPATQRLIDPAVEKRVDALLKQLSVEEKVGQVIQGDIGTITPEDLRKYPLGSILAGGNSGPNGDDRAPPKEWLDLADAFYRVSLEKRPGHTPIPVLFGIDAVHGHGNIGSATIFPHNIALGATRDPELLRRIGEVTAVEMAATGIDWTFAPALSVVRDDRWGRTYEGFSEDPEIVAAYSAAIVEGVQGKFGSKDFMAPGRIVASAKHFLADGGTDQGRDQGDARISEDELIRIHNAGYPPAIDAGVLTVMASFSSWQGIKHHGHKQLLTDVLKGQMGFNGFIVGDWNAHDQVPGCTKFNCPTSLIAGLDMYMAADSWKQLYENTLAQVKDGTIPMARLDDAVRRILRVKVLAGLFEKPAPKDRPGLPGLETLGSPEHRAVGREAVRKSLVLLKNDKGTLPLSPKARVLVAGDGADNIGKQSGGWTISWQGTGNRNDEFPGATSILGGIRDAVADAGGSVEFDVAGQYKTKPDVAIVVFGEEPYAEFQGDVETLEYQPDQKQDLALLKKLKDQGIPVVAVFLSGRPMWVNPELNASDAFVAAWLPGTEGGGVADVLFTDKAGKVQHDFAGKLSYSWPRTAAQTTVNRGDADYNPLFAYGYGLTYKDKSKVGTLPEESGVPAEARQNAGIYFR | ++ (++ = 1.1 to 6 fold improvement over control Variant No. 2)
110 (protein) STAIAQEGAAPAAILHPEKWPRPATQRLIDPAVEKRVDALLKQLSVEEKVGQVIQGDIGTITPEDLRKYPLGSILAGGNSGPNGDDRAPPKEWLDLADAFYRVSLEKRPGHTPIPVLFGIDAVHGHGNIGSATIFPHNIALGATRDPELLRRIGEVTAVEMAATGIDWTFAPALSVVRDDRWGRTYEGFSEDPEIVAAYSAAIVEGVQGKFGSKDFMAPGRIVASAKHFLADGGTDQGRDQGDARISEDELIRIHNAGYPPAIDAGVLTVMASFSSWQGIKHHGHKQLLTDVLKGQMGFNGFIVGDWNAHDQVPGCTKFNCPTSLIAGLDMYMAADSWKQLYENTLAQVKDGTIPMARLDDAVRRILRVKVLAGLFEKPAPKDRPGLPGLETLGSPEHRAVGREAVRKSLVLLKNDKGTLPLSPKARVLVAGDGADNIGKQSGGWTISWQGTGNRNDEFPGATSILGGIRDAVADAGGSVEFDVAGQYKTKPDVAIVVFGEEPYAEFQGDVETLEYQPDQKQDLALLKKLKDQGIPVVAVFLSGRPMWVNPELNASDAFVAAWLPGTEGGGVADVLFTDKAGKVQHDFAGKLSYSWPRTAAQTTVNRGDADYNPLFAYGYGLTYKDKSKVGTLPEESGVPAE | ++ (++ = 1.1 to 6 fold improvement over control Variant No. 2)
